The values below come from paper PMC4731814.

pKd: −log10 of the molar value.

Assay [1] addresses tricellulin first extracellular loop fragment K217A (human) (UniProt Q8N4S9). Put plainly: SPR; BIAcore X; tricellulin proteins amine-coupled on a CM5 chip; human PLG as analyte at 62.5-1000 nM; HBS-P buffer pH 7.4, 0.15 M NaCl, 37 °C, 30 μl/min; 1:1 Langmuir binding model.
Assay [2] concerns the target tricellulin first extracellular loop fragment K252A (human) (UniProt Q8N4S9). The assay is described as above.
The target of assay [3] is tricellulin first extracellular loop fragment K217A K252A (human) (UniProt Q8N4S9). Described as above.
The target of assay [4] is tricellulin second extracellular loop fragment (human) (UniProt Q8N4S9). The description is as above.
Assay [5] deals with tricellulin first extracellular loop fragment, wild type (human) (UniProt Q8N4S9). The assay is described as above.
The target of a further assay is human plasminogen. Description: ELISA. The conditions noted are these: bacteria OD600 = 0.6 bound to microtiter plates; 1 μM human PLG; parent: est. 0.29; read off a plot. On the technique in general: ELISA stands for enzyme-linked immunosorbent assay.

What is called pKd is −log10 of the Kd, conventionally taken in molar units. Low readings indicate a high Kd, high ones a low Kd. For orientation: koff means the first-order rate constant of dissociation. Higher therefore signals fast dissociation. The term kon denotes the rate constant with which the complex forms. As for human plasminogen (natural protein), the pKd in assay [1] is 6.74; in assay [2], 5.50; in assay [3] it was 5.99; in assay [4], 5.90; in assay [5] it was 7.29. Also, the koff in assay [1] came to 0.0298 s⁻¹; in assay [2] it was 0.0184 s⁻¹; in assay [3] it was 0.0742 s⁻¹; in assay [4], 0.214 s⁻¹; in assay [5], 7.13 s⁻¹. Also, the kon in assay [1] came out at 165000 M⁻¹ s⁻¹; in assay [2], 5890 M⁻¹ s⁻¹; in assay [3], 72400 M⁻¹ s⁻¹; in assay [4], 169000 M⁻¹ s⁻¹; in assay [5], 1.39e+08 M⁻¹ s⁻¹.

For “streptococcal surface enolase on GAS strain NIH35 (wild type) (from UniProt P69949) K252L; K255L”, the response with human plasminogen was found to be 0.23 A450.

With “streptococcal surface enolase on GAS strain NIH35 (wild type) (from UniProt P69949) K252L; K255L; K434L; K435L”, the response with human plasminogen stood at 0.17 A450.

With “streptococcal surface enolase on GAS strain NIH35 (wild type) (from UniProt P69949) K434L; K435L”, the response with human plasminogen stood at 0.3 A450.
